The record followed here is patent US20140369964A1 (GLYTECH, published 2014).

The target of the experiment is T1, IFN-α/β receptor 2 (UniProt P48551 27-243, limits assumed).
T1 sequence (looked up): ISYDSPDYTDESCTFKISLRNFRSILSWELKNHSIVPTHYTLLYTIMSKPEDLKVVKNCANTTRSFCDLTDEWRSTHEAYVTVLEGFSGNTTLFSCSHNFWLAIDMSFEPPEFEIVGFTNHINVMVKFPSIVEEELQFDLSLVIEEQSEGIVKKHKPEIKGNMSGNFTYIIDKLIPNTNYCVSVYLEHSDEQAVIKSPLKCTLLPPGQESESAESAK
As to the kind of experiment: SPR (ProteOn XPR36), receptor amine-coupled to GLM chip, IFN-β as analyte at 0.31-25 nM. The method, then: The binding affinity of the non-heated or heat-treated chemically synthesized IFN-β against IFN-α/β receptor 2 was measured with ProteOn XPR36 (Bio-rad) employing SPR (Surface Plasmon Resonance technology).
Specifically, 10 μg/mL of IFN-α/β receptor 2 (10 mM acetic acid buffer, pH 4.5) was fixed to a GLM chip (Bio-rad) according to instructions by employing an amine coupling kit (Bio-rad) and flowing 0.005% Tween 20/PBS at a flow rate of 30 μL/min. The non-heated disialo sugar chain attached polypeptide (10) prepared in Example 3, or the heat-treated disialo sugar chain attached polypeptide obtained by subjecting the disialo sugar chain attached polypeptide heat-treated in the above 9-1. to the de-Acm step, the benzyl group deprotection step, and the folding step described in the above 3-4.-3-6. were adjusted to 0.31-25 nM with 0.1% BSA and 2 mM EDTA/PBS, and added to the chip at a flow rate 50 of μL/min. The analysis with glycosylated polypeptide (10) was carried out at each of five concentrations of 0.31 nM, 0.93 nM, 2.8 nM, 8.3 nM, and 25 nM. The binding constant (ka), the dissociation constant (kd), and the binding dissociation constant (Kd) were analyzed with ProteOn Manager software. The results thereof are shown in FIG. 38, FIG. 39, and Table 1.

B1: non-heated disialo sugar chain attached polypeptide (10) (ligand)
chain: MSYNLLGFLQRSSNFQCQKLLWQLNGRLEYCLKDRMNFDIPEEIKQLQQFQKEDAALTIYEMLQNIFAIFRQDSSSTGWNETIVENLLANVYHQINHLKTVLEEKLEKEDFTRGKLMSSLHLKRYYGRILHYLKAKEYSHCAWTIVRVEILRNFYFINRLTGYLRN
modifications: disialo sugar chain on Asn at position 80; folded, with a mass loss of 2 Da after folding (disulfide bond, Cys 31-Cys 141 in interferon β)
notes: also called glycosylated polypeptide (10); disialo IFN-β
Consider B1, for which the Kd (in general, the equilibrium constant for the complex coming apart) was 490 pM; the koff (in general, a measure of how fast the partners let go of each other) turned out to be 0.0027 s⁻¹; the kon (commonly the second-order rate constant of association) came to 5.5e+06 M⁻¹ s⁻¹.

B2: heat-treated disialo sugar chain attached polypeptide (ligand)
chain: B1 chain
modifications: disialo sugar chain on Asn at position 80; folded as in step 3-6
notes: also called heat-treated chemically synthesized IFN-β
With B2, binding was put at a Kd of 530 pM, the koff stood at 0.0023 s⁻¹ and the on-rate constant (kon) was found to be 4.3e+06 M⁻¹ s⁻¹.
